# Measured values reported in the supplement of paper PMC10065799, “High-throughput profiling of sequence recognition by tyrosine kinases and SH2 domains using bacterial peptide display” (eLife, 2023).
# What was measured:
# [1] = test system: AncSZ; assay: phosphorylation enrichment, bacterial display (enrichment ratio); higher = better substrate or ligand; peptides without Tyr show the background
# [2] = molecular target: EPHB1 (UniProt P54762); assay: as above
# [3] = molecular target: EPHB2 (UniProt P29323); assay: as above
# Chain of EPHB2 (P29323 whole entry, looked up): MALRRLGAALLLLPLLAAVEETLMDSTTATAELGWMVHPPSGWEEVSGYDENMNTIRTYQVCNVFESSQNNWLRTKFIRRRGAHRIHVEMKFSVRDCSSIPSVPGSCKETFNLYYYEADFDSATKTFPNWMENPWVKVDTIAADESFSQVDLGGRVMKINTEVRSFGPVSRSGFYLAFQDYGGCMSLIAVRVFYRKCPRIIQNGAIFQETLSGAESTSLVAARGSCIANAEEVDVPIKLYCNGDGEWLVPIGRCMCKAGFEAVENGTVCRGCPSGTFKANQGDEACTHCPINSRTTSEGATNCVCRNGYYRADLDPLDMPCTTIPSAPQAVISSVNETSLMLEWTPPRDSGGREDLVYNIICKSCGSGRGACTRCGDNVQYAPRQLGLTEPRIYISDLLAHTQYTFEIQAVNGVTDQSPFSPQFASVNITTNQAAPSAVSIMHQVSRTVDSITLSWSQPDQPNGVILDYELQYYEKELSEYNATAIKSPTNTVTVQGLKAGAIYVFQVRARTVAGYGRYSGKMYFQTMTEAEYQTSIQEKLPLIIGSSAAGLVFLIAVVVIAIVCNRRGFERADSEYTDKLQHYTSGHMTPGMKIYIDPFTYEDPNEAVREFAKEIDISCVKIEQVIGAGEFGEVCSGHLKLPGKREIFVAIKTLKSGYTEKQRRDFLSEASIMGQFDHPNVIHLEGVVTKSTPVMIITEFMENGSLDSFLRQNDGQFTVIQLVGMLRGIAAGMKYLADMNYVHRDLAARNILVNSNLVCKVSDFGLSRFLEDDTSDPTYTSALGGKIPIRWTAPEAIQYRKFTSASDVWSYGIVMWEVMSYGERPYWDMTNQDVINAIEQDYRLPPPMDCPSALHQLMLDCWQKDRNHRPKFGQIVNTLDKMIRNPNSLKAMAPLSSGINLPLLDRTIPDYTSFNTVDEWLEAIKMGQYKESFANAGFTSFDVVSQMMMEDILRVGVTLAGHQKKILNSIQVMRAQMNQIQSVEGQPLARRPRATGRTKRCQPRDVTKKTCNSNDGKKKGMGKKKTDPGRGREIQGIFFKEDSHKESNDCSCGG
# [4] = molecular target: FGFR1 (UniProt P11362); assay: as above
# [5] = molecular target: FGFR3 (UniProt P22607); assay: as above
# [6] = test system: Fer (mouse); assay: as above
# [7] = molecular target: Fes (UniProt P07332); assay: as above
# Chain of Fes (P07332 whole entry, looked up): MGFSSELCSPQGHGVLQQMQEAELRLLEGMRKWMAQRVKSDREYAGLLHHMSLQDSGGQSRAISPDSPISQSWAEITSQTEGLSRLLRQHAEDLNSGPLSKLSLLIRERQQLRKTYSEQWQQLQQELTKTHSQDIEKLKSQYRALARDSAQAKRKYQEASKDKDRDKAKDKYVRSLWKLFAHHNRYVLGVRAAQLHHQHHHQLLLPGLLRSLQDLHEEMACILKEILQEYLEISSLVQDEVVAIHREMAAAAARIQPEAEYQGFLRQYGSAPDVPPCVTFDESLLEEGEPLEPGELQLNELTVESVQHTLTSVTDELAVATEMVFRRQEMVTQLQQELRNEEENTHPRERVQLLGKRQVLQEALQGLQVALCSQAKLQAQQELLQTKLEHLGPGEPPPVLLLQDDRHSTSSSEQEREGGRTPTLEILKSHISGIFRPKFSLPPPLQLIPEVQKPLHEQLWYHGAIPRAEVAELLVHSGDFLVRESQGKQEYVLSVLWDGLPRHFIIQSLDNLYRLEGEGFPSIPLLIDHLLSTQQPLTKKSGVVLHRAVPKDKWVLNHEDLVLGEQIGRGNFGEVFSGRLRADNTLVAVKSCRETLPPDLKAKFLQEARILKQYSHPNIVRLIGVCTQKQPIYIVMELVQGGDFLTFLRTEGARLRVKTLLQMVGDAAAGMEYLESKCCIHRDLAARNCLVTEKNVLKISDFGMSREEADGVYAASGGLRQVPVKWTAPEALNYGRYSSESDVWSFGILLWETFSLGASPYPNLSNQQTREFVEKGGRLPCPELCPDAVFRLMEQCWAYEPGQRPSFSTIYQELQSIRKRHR
# [8] = molecular target: Fyn (UniProt P06241); assay: as above
# [9] = molecular target: Hck (UniProt P08631); assay: as above
# [10] = molecular target: Jak2 (UniProt O60674); assay: as above
# Chain of Jak2 (O60674 whole entry, looked up): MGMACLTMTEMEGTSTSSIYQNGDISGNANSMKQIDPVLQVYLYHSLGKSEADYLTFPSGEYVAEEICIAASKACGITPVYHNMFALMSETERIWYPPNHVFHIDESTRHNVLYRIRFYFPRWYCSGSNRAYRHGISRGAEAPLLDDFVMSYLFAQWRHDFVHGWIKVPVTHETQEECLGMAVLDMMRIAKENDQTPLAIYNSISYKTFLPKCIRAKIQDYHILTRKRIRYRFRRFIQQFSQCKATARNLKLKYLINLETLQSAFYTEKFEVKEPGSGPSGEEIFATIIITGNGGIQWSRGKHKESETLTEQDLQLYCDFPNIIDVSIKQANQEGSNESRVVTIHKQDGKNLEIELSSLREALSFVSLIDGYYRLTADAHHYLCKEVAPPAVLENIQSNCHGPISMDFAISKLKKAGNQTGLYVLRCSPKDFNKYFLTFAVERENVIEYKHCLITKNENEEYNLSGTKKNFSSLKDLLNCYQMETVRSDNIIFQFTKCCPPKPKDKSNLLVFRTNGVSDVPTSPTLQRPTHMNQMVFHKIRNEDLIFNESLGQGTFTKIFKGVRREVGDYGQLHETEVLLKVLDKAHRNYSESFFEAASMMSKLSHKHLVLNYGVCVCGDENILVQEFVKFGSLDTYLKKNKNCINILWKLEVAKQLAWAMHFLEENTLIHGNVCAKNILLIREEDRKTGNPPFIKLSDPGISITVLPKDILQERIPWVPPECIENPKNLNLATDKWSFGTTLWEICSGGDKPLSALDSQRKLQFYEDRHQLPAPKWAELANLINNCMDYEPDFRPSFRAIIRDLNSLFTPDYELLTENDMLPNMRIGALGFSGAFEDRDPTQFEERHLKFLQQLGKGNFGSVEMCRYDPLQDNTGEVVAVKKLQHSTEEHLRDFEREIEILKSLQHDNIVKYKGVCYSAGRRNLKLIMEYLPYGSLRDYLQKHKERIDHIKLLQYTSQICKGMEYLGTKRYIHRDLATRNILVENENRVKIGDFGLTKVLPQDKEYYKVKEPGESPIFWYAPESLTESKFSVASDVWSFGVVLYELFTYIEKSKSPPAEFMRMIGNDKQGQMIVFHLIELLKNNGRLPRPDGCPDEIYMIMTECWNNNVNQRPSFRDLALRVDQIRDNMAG
# [11] = molecular target: MERTK (UniProt Q12866); assay: as above
# Chain of MERTK (Q12866 whole entry, looked up): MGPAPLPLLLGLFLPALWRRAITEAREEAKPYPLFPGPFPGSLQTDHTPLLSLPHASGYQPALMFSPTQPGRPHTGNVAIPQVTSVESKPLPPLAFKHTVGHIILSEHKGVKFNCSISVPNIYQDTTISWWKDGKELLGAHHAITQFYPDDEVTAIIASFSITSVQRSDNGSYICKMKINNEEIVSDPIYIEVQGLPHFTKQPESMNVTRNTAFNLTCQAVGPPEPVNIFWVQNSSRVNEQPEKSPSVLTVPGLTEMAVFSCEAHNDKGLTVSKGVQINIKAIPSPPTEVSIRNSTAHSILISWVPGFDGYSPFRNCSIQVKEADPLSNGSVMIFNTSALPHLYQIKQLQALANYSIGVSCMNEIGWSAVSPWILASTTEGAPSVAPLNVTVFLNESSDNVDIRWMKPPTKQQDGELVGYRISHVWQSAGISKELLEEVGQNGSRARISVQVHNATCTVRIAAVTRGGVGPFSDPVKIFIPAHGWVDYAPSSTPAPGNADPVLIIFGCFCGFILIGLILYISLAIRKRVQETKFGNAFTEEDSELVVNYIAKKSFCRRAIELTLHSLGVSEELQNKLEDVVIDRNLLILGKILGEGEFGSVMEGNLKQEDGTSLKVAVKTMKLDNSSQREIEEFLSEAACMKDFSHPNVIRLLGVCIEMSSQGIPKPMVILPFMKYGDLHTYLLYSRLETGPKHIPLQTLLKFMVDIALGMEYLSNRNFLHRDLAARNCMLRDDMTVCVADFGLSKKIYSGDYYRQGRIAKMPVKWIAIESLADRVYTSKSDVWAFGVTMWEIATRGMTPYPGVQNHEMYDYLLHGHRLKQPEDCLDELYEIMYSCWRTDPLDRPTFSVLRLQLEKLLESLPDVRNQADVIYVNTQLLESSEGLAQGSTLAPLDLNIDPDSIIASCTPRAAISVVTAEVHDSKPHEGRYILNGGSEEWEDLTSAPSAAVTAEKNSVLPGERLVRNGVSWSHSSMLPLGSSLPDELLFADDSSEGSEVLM
# [12] = test system: c-Abl (mouse); assay: as above
# [13] = test system: c-Src; assay: as above
# [14] = molecular target: Grb2 SH2 (UniProt P62993); assay: SH2 binding enrichment of the phosphorylated peptide, bacterial display (enrichment ratio); higher = better substrate or ligand; peptides without Tyr show the background
# [15] = molecular target: SHP2-C SH2; assay: as above
# [16] = molecular target: c-Src SH2; assay: as above
# 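Wherever SH2 binding enrichment of the phosphorylated peptide, bacterial display is given: peptide library displayed on the E. coli surface as eCPX fusions, selected cells deep-sequenced, score is each peptide's frequency after selection divided by its frequency in the input.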
# 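Wherever phosphorylation enrichment, bacterial display is given: 11-residue human phosphosite peptides and single-mutation variants displayed on the E. coli surface, counted by deep sequencing, each peptide's frequency after selection divided by its frequency in the unselected input library; frequency after pTyr selection over input frequency; kinase dosed for 20-30% of maximal phosphorylation in three min.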
# Chain of EPHB1 (P54762 whole entry, looked up): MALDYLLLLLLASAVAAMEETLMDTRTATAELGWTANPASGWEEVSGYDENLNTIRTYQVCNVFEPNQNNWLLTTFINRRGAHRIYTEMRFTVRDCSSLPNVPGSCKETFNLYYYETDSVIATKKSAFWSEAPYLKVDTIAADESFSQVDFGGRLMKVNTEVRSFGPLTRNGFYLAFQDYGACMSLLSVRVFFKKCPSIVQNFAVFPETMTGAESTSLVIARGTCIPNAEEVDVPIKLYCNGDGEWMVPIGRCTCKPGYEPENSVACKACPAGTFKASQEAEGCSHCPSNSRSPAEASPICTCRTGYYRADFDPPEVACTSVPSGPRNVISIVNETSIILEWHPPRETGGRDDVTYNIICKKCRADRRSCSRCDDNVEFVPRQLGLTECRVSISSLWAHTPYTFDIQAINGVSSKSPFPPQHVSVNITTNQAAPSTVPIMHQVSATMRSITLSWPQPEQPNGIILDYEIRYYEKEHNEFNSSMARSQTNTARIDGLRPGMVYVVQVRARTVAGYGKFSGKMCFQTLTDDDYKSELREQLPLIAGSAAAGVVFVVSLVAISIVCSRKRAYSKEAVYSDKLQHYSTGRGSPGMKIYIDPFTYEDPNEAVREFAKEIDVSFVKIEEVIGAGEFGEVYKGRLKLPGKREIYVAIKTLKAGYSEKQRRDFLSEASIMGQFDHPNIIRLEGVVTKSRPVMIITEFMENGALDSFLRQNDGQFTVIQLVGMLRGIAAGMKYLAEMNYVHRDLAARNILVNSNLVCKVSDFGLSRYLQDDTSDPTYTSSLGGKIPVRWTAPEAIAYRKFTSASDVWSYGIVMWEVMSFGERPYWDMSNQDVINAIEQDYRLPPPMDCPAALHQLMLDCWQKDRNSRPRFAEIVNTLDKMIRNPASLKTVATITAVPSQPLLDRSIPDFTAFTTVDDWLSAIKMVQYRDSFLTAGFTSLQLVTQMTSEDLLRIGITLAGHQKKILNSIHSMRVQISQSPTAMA
Sequence,SH2 binding enrichment [14],SH2 binding enrichment [15],SH2 binding enrichment [16],phosphorylation enrichment [1],phosphorylation enrichment [2],phosphorylation enrichment [3],phosphorylation enrichment [4],phosphorylation enrichment [5],phosphorylation enrichment [6],phosphorylation enrichment [7],phosphorylation enrichment [8],phosphorylation enrichment [9],phosphorylation enrichment [10],phosphorylation enrichment [11],phosphorylation enrichment [12],phosphorylation enrichment [13]
TTKGSYSLFVR [HCK_Y180_S183Y_YF],1.08,0.837,0.552,1,0.351,0.846,0.383,0.57,0.43,1.09,0.418,0.441,0.742,0.45,0.546,0.419
TVDASYFGGRG [ANTXR2_Y380_YF],1.01,0.513,0.474,0.569,0.333,0.337,0.372,0.394,0.312,0.567,0.403,0.425,0.677,0.438,0.519,0.413
TVINKYQGKLF [HGD_Y249],0.838,0.811,0.504,0.514,0.336,0.436,0.473,0.401,0.372,0.596,0.414,0.447,0.545,0.398,0.513,0.449
VAFLFYKSIGP [ADGRL4_Y302_V300L_YF],0.542,0.457,0.301,1.38,0.689,0.664,0.739,0.837,0.55,1.6,0.5,0.488,1.98,0.523,1.12,0.558
VAVVQYSGTGQ [COL6A1_Y878],0.767,0.413,0.451,0.517,0.479,0.463,0.487,0.564,0.387,0.71,0.357,0.438,0.576,0.412,0.592,0.451
VEKGSYSALLA [ABCC2_Y845],0.663,0.686,1.45,0.648,0.354,0.392,0.401,0.456,0.45,0.535,0.332,0.537,0.69,0.71,0.516,0.493
VFGVSYDEYRY [CFTR_Y512_I507V],0.781,0.72,1.38,1.01,0.538,0.465,0.434,0.604,0.453,0.959,0.802,0.712,0.761,0.477,0.566,1.31
VFPIDYFFPPQ [AR_Y552_L548F_YF],1.4,1.32,0.646,4.04,1.19,1.53,12.6,10.7,0.643,1.04,0.508,0.618,2.76,0.518,1.03,0.906
VGNPAYRSFSN [IL4R_Y497_A492V],0.862,0.547,0.405,0.518,0.368,0.417,0.412,0.435,0.509,0.546,0.441,0.329,0.608,0.374,0.478,0.376
VGTKQYMAPEV [ACVRL1_Y375_R374Q],0.832,0.572,0.485,0.678,0.466,0.653,0.458,0.51,0.42,0.754,0.432,0.429,0.738,0.469,0.674,0.598
VHNLDYYKMTT [FGFR3_Y647_K650M],0.731,0.643,1.07,1.33,1.17,0.895,12.1,8.96,0.522,0.608,0.439,0.547,5.87,0.492,0.433,0.496
VIERSYTSADG [DHCR7_Y382_C380R],0.852,0.564,1.39,0.571,0.388,0.478,0.414,0.466,0.454,0.692,0.496,0.392,0.578,0.395,0.565,0.419

# Now from value to sequence, other results behind:
SH2 binding enrichment [14],SH2 binding enrichment [15],SH2 binding enrichment [16],Sequence,phosphorylation enrichment [1],phosphorylation enrichment [2],phosphorylation enrichment [3],phosphorylation enrichment [4],phosphorylation enrichment [5],phosphorylation enrichment [6],phosphorylation enrichment [7],phosphorylation enrichment [8],phosphorylation enrichment [9],phosphorylation enrichment [10],phosphorylation enrichment [11],phosphorylation enrichment [12],phosphorylation enrichment [13]
0.895,1,0.681,TTPGPHRSIFF [MPG_Y71_Y71H_YF],0.502,0.41,0.386,0.353,0.41,0.328,0.514,0.398,0.355,0.449,0.376,0.542,0.303
0.854,0.417,0.712,TTSQLYDAMPI [PDPK1_Y9_V12M],0.986,8.16,6.17,0.537,0.809,12.4,0.794,6.16,8.57,0.665,9.19,0.706,3.9
0.846,0.607,0.538,TVFENYVADIK [RHOA_Y42_E47K],0.922,0.845,0.676,0.48,0.688,0.495,0.878,0.534,0.534,0.889,0.442,0.699,0.536
0.745,0.704,0.453,TVQVAYFTMMM [SPATA17_Y83_YF],1.04,0.662,0.667,1.04,1.17,0.678,1.41,0.5,0.59,1.15,0.441,0.791,0.599
0.893,0.737,1.66,VCHELYNAIRD [PBRM1_Y54_T56A],0.939,0.543,0.574,0.464,0.702,0.567,0.933,0.672,2.62,0.79,0.43,0.693,1.33
0.994,0.57,0.521,VDDEIYYFRKP [PBRM1_Y1289],2.94,0.871,0.84,6.49,5.81,1.29,1.39,8.84,8.76,1.35,4.89,7.44,6.81
0.778,0.669,0.42,VDDQIYFFRKP [PBRM1_Y1289_E1287Q_YF],2.49,0.961,0.785,3.43,3.47,0.728,1.55,6.38,5.8,1.61,1.42,3.29,4.67
0.852,0.647,0.62,VDEERYDIEAK [TNNI3_Y112],1.13,0.516,0.708,0.555,0.697,0.519,1.24,0.513,0.724,1.12,0.439,0.752,0.483
0.849,0.635,0.489,VDEVLYEDSST [MTHFS_Y197],1.53,0.666,0.671,0.742,0.886,2.56,1.34,0.571,0.646,1.18,0.492,0.785,0.615
0.917,1.11,0.918,VDYQPYRKHKY [TEX37_Y28],0.627,0.314,0.356,0.423,0.416,0.425,0.518,0.436,0.484,0.483,0.302,0.53,0.35
1,0.777,0.668,VERRVYAEDPF [PCCA_Y401_C398R_YF],0.722,0.385,0.499,0.429,0.481,0.39,0.76,0.554,0.412,0.674,0.384,0.648,0.462
0.983,0.638,0.527,VFAADYFKLLG [ROR2_Y645_YF],0.819,0.52,0.403,7.25,4.37,0.467,0.643,0.417,0.439,7.31,0.394,0.498,0.562
1.24,1.2,1.76,VFFGSYSRPFG [NKAP_Y104_YF],1.39,0.396,0.445,0.522,0.65,0.419,0.974,0.382,0.479,1.12,0.777,1.02,0.584
1.2,2.13,1.08,VFSIDYFRVGG [NTRK2_Y706_T704I_YF],1.35,0.874,0.563,4.54,2.94,0.484,1.08,0.535,0.588,5.86,0.526,0.829,0.649
1.08,0.885,0.962,VHKKGYNKLNQ [ZNF676_Y98_E96K],0.408,0.48,0.374,0.494,0.516,0.439,0.66,0.403,0.43,0.569,0.384,0.645,0.488
0.803,0.777,0.585,VHVEVYDRPSP,1.39,0.791,0.668,0.438,0.761,0.802,1.02,0.855,1.95,1.01,0.531,1.33,0.597
1.05,1.14,0.876,VIGRMYDFHVL [RPF2_Y109_YF],0.943,0.556,0.659,0.472,0.607,8.04,0.902,0.469,0.6,0.804,3.11,0.573,0.598
